From CN111253487A (GUANGDONG HEC PHARMACEUTICAL, dated 2020)
Blank lines part the entries; values can stand above or below the binder they belong to.

Tests used:
表达在肿瘤细胞NALM-6表面的CD19 [1] = biological target: T1, 表达在肿瘤细胞NALM-6表面的CD19 (UniProt P15391 20-556, limits assumed); assay: flow cytometry on NALM-6 cells, FITC goat anti-mouse secondary
T1 construct: whole, on cells; also called CD19阳性细胞; NALM-6细胞
T1 sequence (looked up): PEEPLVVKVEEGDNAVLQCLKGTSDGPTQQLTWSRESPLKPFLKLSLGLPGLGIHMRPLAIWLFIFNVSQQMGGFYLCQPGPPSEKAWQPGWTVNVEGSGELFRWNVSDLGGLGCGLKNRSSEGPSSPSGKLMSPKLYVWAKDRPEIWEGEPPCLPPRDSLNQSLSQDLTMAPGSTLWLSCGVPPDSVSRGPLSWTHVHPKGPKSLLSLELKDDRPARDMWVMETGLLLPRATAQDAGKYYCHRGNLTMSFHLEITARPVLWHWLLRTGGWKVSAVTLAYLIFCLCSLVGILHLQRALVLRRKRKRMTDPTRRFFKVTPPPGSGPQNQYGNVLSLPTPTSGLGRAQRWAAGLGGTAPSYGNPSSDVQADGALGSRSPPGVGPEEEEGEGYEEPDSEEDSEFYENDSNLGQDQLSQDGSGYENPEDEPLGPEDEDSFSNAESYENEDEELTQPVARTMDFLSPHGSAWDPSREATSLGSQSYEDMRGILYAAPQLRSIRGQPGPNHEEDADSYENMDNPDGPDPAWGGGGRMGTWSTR

CD19蛋白 (购自acro) = biological target: T2, CD19蛋白 (购自acro) (UniProt P15391 20-291); assay: ELISA, CD19 protein coated, antibody in twofold dilutions from 0.1mg/mL, OD450
T2 construct: also called 重组CD19蛋白 (ACRO, CD9-H52H2)
T2 sequence (looked up): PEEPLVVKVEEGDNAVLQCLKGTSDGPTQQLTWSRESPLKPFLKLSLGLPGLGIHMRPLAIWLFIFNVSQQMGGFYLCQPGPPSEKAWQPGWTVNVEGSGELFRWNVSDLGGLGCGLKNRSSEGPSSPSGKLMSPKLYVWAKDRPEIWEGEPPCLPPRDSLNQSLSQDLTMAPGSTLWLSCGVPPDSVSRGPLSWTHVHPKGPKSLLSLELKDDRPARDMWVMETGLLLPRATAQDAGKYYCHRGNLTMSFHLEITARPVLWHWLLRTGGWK

[2] = biological target: T3, CD19胞外区蛋白 (abcam, ab234966, 氨基酸序列编号第20位至291位) (UniProt P15391 20-291); assay: western blot on reduced, denatured CD19 extracellular domain, antibody at 20μg/mL
T3 construct: range 20-291; also called 变性的CD19重组蛋白; CD19重组蛋白
T3 sequence (looked up): T2 sequence (looked up)

表达在肿瘤细胞NALM-6表面的CD19 [3] = biological target: T1, 表达在肿瘤细胞NALM-6表面的CD19; assay: flow cytometry of scFv on NALM-6 cells, PE goat anti-human secondary

binding result (表达在肿瘤细胞NALM-6表面的CD19 [1]): binds
binding result (CD19蛋白 (购自acro)): binds
binding result [2]: binds
B1: 抗CD19鼠源抗体 10H10-1 (antibody, V domains shown)
VH: EVQLQQSGAELVRPGTSVKVSCKASGYAFTNYFIEWVIQRPGQGLEWIGVINPGNSNTNYNEKFKGKATLTADKSSSTAYMQLSSLTSDDSAVYFCARSGTTATTYAMDYWGQGTSVIVSS
VL: DIVMTQTPLSLPVSLGDQVSISCRSSQTLVYSNGDTYLEWYLQKPGQSPKLLIYKLSNRFSGVPDRFSGSGSGTDFTLKISRVESEDLGVYYCFQGSYFPFTFGAGTKLEIK
notes: Murine anti-CD19 antibody from a hybridoma

binding result (表达在肿瘤细胞NALM-6表面的CD19 [3]): binds
B2: 10H10-1 scFv (单链抗体10H10-1) (scFv)
scFv: DIVMTQTPLSLPVSLGDQVSISCRSSQTLVYSNGDTYLEWYLQKPGQSPKLLIYKLSNRFSGVPDRFSGSGSGTDFTLKISRVESEDLGVYYCFQGSYFPFTFGAGTKLEIKGGGGSGGGGSGGGGSEVQLQQSGAELVRPGTSVKVSCKASGYAFTNYFIEWVIQRPGQGLEWIGVINPGNSNTNYNEKFKGKATLTADKSSSTAYMQLSSLTSDDSAVYFCARSGTTATTYAMDYWGQGTSVIVSS
notes: It was detected with PE-labelled goat anti-human antibody, and no tag or Fc is stated; also called CD19 scfv抗体 10H10-1
